Measurements published in US20080213296A1.
pKd: −log10 of the molar value. “And” between values parts separate entries of the source, which are not always exact repeats. Identical values can stand only once.

Tests used:
[1] = target: HIV 89.6 gp140 envelope protein (cleaved gp140 preparation, oligomers) (HIV 89.6 (Clade B) primary isolate); assay: SPR, sCD4-ligated gp140
[2] = target: HIV 89.6 gp140 envelope protein (cleaved gp140 preparation, oligomers) (HIV 89.6 (Clade B) primary isolate); assay: SPR, D1 peptide over 89.6 gp140 captured on immobilized CD4 (CD4-gp140 complex)
[3] = target: HIV 89.6 gp140 envelope protein (cleaved gp140 preparation, oligomers) (HIV 89.6 (Clade B) primary isolate); assay: SPR, D1 peptide over directly immobilized 89.6 gp140, no CD4
[4] = target: recombinant HIV ADA gp41 protein (HIV ADA); assay: SPR, 89.6 gp120 (100 µg/ml) over immobilized ADA gp41
[5] = target: recombinant HIV ADA gp41 protein (HIV ADA); assay: SPR, 89.6 gp120 pre-incubated with 0.3 mg/ml CD4, over immobilized ADA gp41
soluble CD4 [6] = target: soluble CD4 (UniProt P01730); assay: SPR
soluble CD4 [7] = target: soluble CD4 (UniProt P01730); assay: SPR, gp120 over immobilized CD4
[8] = target: HIV 89.6 gp120 envelope protein (soluble) (HIV 89.6 (Clade B) primary isolate); assay: SPR capture assay, mAb pre-incubated with 89.6 gp120, captured on A32; competitor DP178 50 µg/ml
[9] = target: scrambled sequence DP178 peptide; assay: SPR SA-chip assay, A32 over biotinylated scrDP178
[10] = target: HIV 89.6 gp120 envelope protein (soluble) (HIV 89.6 (Clade B) primary isolate); assay: SPR capture assay, gp120 over immobilized A32
[11] = target: HIV 89.6 gp120 envelope protein (soluble) (HIV 89.6 (Clade B) primary isolate); assay: SPR SA-chip assay, 89.6 gp120 alone over biotinylated scrDP178

“CCR5-D1 peptide (CCR5 N-terminal extracellular domain peptide)” showed a pKd [1] of 3.55, a pKd [2] of 6.55 and a koff [2] of 0.00256 s⁻¹. It also gave a kon [2] of 9000 M⁻¹ s⁻¹, a pKd [3] of 6.00 and a koff [3] of 0.01 s⁻¹.
With “HIV 89.6 gp120 envelope protein (soluble)” the RU bound [4] was 300 RU, the RU bound [5] was 850 RU and the t1/2 of binding (soluble CD4 [6]) was 105 min. The pKd (soluble CD4 [7]) was 7.64 and the koff (soluble CD4 [7]) was 0.00011 s⁻¹.
HIV DH12 gp120 (soluble, monomeric) showed a t1/2 of binding (soluble CD4 [6]) of 25 min, a pKd (soluble CD4 [7]) of 7.02 and a koff (soluble CD4 [7]) of 0.00047 s⁻¹.
Work on HIV JRFL gp120 (soluble, monomeric) yielded a t1/2 of binding (soluble CD4 [6]) of 14 min, a pKd (soluble CD4 [7]) of 6.84 and a koff (soluble CD4 [7]) of 0.00088 s⁻¹.
“mAb 48d (human, coreceptor binding site of gp120) (antibody)” gave a % blocking of DP178 binding [8] of 80%.
In the case of “mab 17b (human, CCR5/coreceptor binding site of gp120) (antibody)”, the % blocking of DP178 binding [8] was 80%.
Work on “mab 19b (human anti-gp120 V3 loop) (antibody)” yielded a % blocking of DP178 binding [8] of 68%.
In the case of “mab A32 (human anti-gp120, conformational determinant) (antibody)”, the RU (background signal) [9] was 10 RU and 20 RU and the RU bound [10] was 2000 RU.
scrambled sequence DP178 peptide gave an RU (constitutive binding) [11] of 50 RU.
